Series [1] addresses UGT1A4 (UDP-glucuronosyltransferase 1A4) (Homo sapiens, UniProt P22310). The series can be described thus: (§1) Binding affinity against human UDP Glucuronosyltransferase 1A4 (UGT1A4). The following applies: read-out: Km,app.
Substrate in series [2]: [H][C@@]12CC[C@]3([H])[C@]([H])(CC[C@@]4(C)[C@@]3([H])CC[C@]4([H])[C@H](C)O)[C@@]1(C)CC[C@H](O)C2
The series is described as §1.

Substrate in series [3]: c1ccc(Nc2ccccc2)cc1
The series is described as §1.

Substrate in series [4]: O=[N+]([O-])c1ccc(O)cc1
Described as §1.

Substrate in series [5]: O=c1c(-c2ccc(O)cc2)coc2cc(O)ccc12
The description is as §1.

Substrate in series [6]: C[C@@H]1CC[C@@]2(OC1)O[C@H]1C[C@H]3[C@@H]4CC[C@@]5(C)C[C@@H](O)CC[C@]5(C)[C@H]4CC(=O)[C@]3(C)[C@H]1[C@@H]2C
The description is as §1.

Substrate in series [7]: CN1CCN(C2=Nc3ccccc3Oc3ccc(Cl)cc32)CC1
The description is as §1.

Substrate in series [8]: C[C@@H]1CC[C@@]2(OC1)O[C@H]1C[C@H]3[C@@H]4CC=C5C[C@@H](O)CC[C@]5(C)[C@H]4CC[C@]3(C)[C@H]1[C@@H]2C
Described as §1.

Substrate in series [9]: C=CCc1ccc(O)c(OC)c1
Described as §1.

Substrate in series [10]: CN(C)CCC=C1c2ccccc2CCc2ccccc21
The description is as §1.

Substrate in series [11]: Nc1ccc(-c2ccc(N)cc2)cc1
The series is described as §1.

Substrate in series [12]: Nc1ccccc1-c1ccccc1
The series is described as §1.

Substrate in series [13]: CN1CCC(=C2c3ccccc3CC(=O)c3sccc32)CC1
The series is described as §1.

Substrate in series [14]: Clc1ccc2c(c1)N=C(N1CCNCC1)c1ccccc1N2
Described as §1.

Substrate in series [15]: CC1(C)[C@H]2CC[C@]1(C)[C@H](O)C2
The series is described as §1.

Substrate in series [16]: C[C@@H]1CC[C@@]2(OC1)O[C@H]1C[C@H]3[C@@H]4CC[C@H]5C[C@@H](O)CC[C@]5(C)[C@H]4CC[C@]3(C)[C@H]1[C@@H]2C
The description is as §1.

Substrate in series [17]: CCOC(=O)Nc1ccc(NCc2ccc(F)cc2)cc1N
The series is described as §1.

Substrate in series [18]: CN1CCC(=C2c3ccccc3C=Cc3ccccc32)CC1
Described as §1.

Substrate in series [19]: [H][C@@]12CC[C@]3([H])[C@]([H])(CC[C@]4(C)C(C)(O)CC[C@@]34[H])[C@@]1(C)CCC(O)C2
Described as §1.

Substrate in series [20]: CC1CC[C@H](C(C)C)[C@@H](O)C1
The description is as §1.

Substrate in series [21]: CN(C)CCCN1c2ccccc2CCc2ccccc21
The series is described as §1.

Substrate in series [22]: Cc1ccc(C(C)C)cc1O
The series is described as §1.

Substrate in series [23]: CN1CCN(C2=Nc3cc(Cl)ccc3Nc3ccccc32)CC1
The description is as §1.

Substrate in series [24]: Nc1ccc(-c2ccccc2)cc1
Described as §1.

By Km is commonly meant the concentration of substrate that gives half-maximal velocity. Consider `CN(C)CCCN1c2ccccc2Sc2ccc(Cl)cc21` [CHLORPROMAZINE], for which the Km in [1] turned out to be 93 µM.

B1: UDP-glucuronosyltransferase 1A4 (Homo sapiens) (protein)
chain: MARGLQVPLPRLATGLLLLLSVQPWAESGKVLVVPTDGSPWLSMREALRELHARGHQAVVLTPEVNMHIKEEKFFTLTAYAVPWTQKEFDRVTLGYTQGFFETEHLLKRYSRSMAIMNNVSLALHRCCVELLHNEALIRHLNATSFDVVLTDPVNLCGAVLAKYLSIPAVFFWRYIPCDLDFKGTQCPNPSSYIPKLLTTNSDHMTFLQRVKNMLYPLALSYICHTFSAPYASLASELFQREVSVVDLVSYASVWLFRGDFVMDYPRPIMPNMVFIGGINCANGKPLSQEFEAYINASGEHGIVVFSLGSMVSEIPEKKAMAIADALGKIPQTVLWRYTGTRPSNLANNTILVKWLPQNDLLGHPMTRAFITHAGSHGVYESICNGVPMVMMPLFGDQMDNAKRMETKGAGVTLNVLEMTSEDLENALKAVINDKSYKENIMRLSSLHKDRPVEPLDLAVFWVEFVMRHKGAPHLRPAAHDLTWYQYHSLDVIGFLLAVVLTVAFITFKCCAYGYRKCLGKKGRVKKAHKSKTH
As to B1, the Km in [2] was found to be 7.3 µM; in [3], 240 µM; in [4], 11600 µM; in [5], 400 µM; in series [6], 18 µM; in series [7], 27 µM. Also, the Km in series [8] was 13 µM; in series [9] it was 1570 µM; in series [10] it was 60 µM; in series [11], 460 µM; in [12], 47 µM; in [13] it was 70 µM. The Km in series [14] was determined as 56 µM; in series [15] it was 1100 µM; in series [16], 7 µM; in [17], 322 µM; in series [18], 150 µM; in series [19] it was 16 µM. Moreover, the Km in series [20] worked out at 470 µM; in [21], 310 µM; in series [22] it was 1500 µM; in series [23] it was 62 µM; in series [24], 66 µM.

The values are drawn from ChEMBL document CHEMBL1136774, “Pharmacophore and quantitative structure-activity relationship modeling: complementary approaches for the rationalization and prediction of UDP-glucuronosyltransferase 1A4 substrate selectivity” (J Med Chem, 2003).
